# In patent US10801046B2, “Methods and materials for biosynthesizing multifunctional, multivariate molecules via carbon chain modification” (INVISTA NORTH AMERICA S.A.R.L., priority 2016, dated 2020):
# Test: In vivo aminotransferase activity screening, 7-aminoheptanoate by LC-MS
# Type: cell-based, Escherichia coli
# Conditions: in vivo conversion of 7-oxoheptanoate to 7-aminoheptanoate, 120 aminotransferases screened
# How it was run: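 Aminotransferase library expressed in E. coli T7 Express lysY/Iq co-expressing sfp, CAR_Srot and BioC, grown overnight at 37° C in rich media with 0.4 mM IPTG and 1 g/L monomethyl heptanedioate, heptanedioate or no acid. Culture supernatants analysed by LC-MS for 7-aminoheptanoate or its monomethyl ester.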
row,Molecule,7-aminoheptanoate yield compared to the positive control (F2XBU9)
1,"SEQ ID NO: 177: Pseudooceanicola batsensis aminotransferase (protein, listed as Pseudooceanicola batsensis, Pseudooceanicola batsensis (strain ATCC BAA-863 / DSM 15984 / KCTC 12145 / HTCC2597), Pseudooceanicola batsensis aminotransferase) MKDDNFLKEHNARALWHPMGAPGDSMANPPVIISSASGSRIRDIDGHETVDGVGGLWCANLGYSNDAVKEAIAKQLHELPYYSAFAGCTNPSAIEASVAVQEFFAEDGIGRVFFTSGGSDSVDTCLRLARQYHQVKGAPTRTKFLSLKKGYHGTHFGGASVNGNNRFRIGYEPLLPGCFHLTAPHAYRNPYDEADPAALARKIAAEMVDEIEFQGPETIAAFIMEPILGAGGVIVPDPTFMGLMREICTRYGILMIADEVICGFGRTGDWTGSRHWGVRPDMMSVAKGITSAYFPVGAALISEEVAEVFEKDTSGAAAIWHGYTYSAHPVGAAAVTACLSETLRLDTRTNAAARGTQLYQGLLGLKEKYDIIGDVRGGHGLMTAIEFVTDRAKKTPMDAATVKTIHSRVYEAGAMVRPAPPNLLMSPPLIITEAEVRTIIEALDTAIGSV",higher 7-aminoheptanoate yields
2,"SEQ ID NO: 178: Defluviimonas sp. 20V17 aminotransferase (protein, Defluviimonas sp. 20V17, Defluviimonas sp; 20V17 aminotransferase) MNELSNSVAHADITTILHPYTDARMHEQKGPLVIEKGDGVHVIDQSGKRYIEAMSGLWSVAVGFSQTRLRDAAAAQMEKLPYYHTFASKSHEPSVRLAEKLVEMTPENLTRVFYTSSGSEANDTVIKLVWYMNNALGRPQKKKFLARNKAYHGITIASGSLTGLPGNHRDFDLPAIPVVHLTCPHLYRFGQEGETEAQFCARLLKEAEDTILAEGPETIAAFIGEPVMGAGGVMVPPEGYWQGIEALCRKYDILLVSDEVINGFGRTGARWGCEKMGFTPDILVTSKQLTSSYMPLAAIVFSEDIYNVIADNTHKLGGFGHGFTASGHPVACAVGLENLAIIEEQGLMENAAKMGERLQAGLAKLADHPLVGEVRGTGLIAAVELVADKATKRPFDPVGKVGGKVFEYGHEEGVIFRNLGDSIAVCPPLIVTEHDVDEIVRLMGIAIDRAADWARAEGLVA",higher 7-aminoheptanoate yields
3,"SEQ ID NO: 179: Sphingobacterium spiritivorum ATCC 33861 aminotransferase (protein, Sphingobacterium spiritivorum ATCC 33861, Sphingobacterium spiritivorum ATCC 33861 aminotransferase) MIKEATVHERLAKHILADGLPLVIDLEKSHDSYIVDIEGNEYLDMFSMFASSPIGYNHPHIVKNSDLLKKVAINKLALSDIYPREFADFVDTFERVAIPAELSYCFFIDGGALAVENALKAAFDWKTRLNISRGIQQEASEVIHFKQAFHGRTGYTLSLTNTKDPRKYMYFPKFDWPRITNPKLHFPLTEESVTETIKAEQQAIQEIEAAIAKNPDAIACLILEPIQAEGGDNHFRTEFFQELRRICDDHDILLILDEVQTGLALTGKMWAYEHYGIIPDLISFGKKSQVCGVLAHREKFDRVEKHVFKESSRINSTFGGNLVDMMRFKLILEVIEQENLVQQAESLGEYLLEKLEQLAKRHSQLSNVRGKGLLASFDFQTEQQRDEFVKRAMNNKLLILGCGDKSIRFRPHLTVTVEQLDKALALVEKSL",higher 7-aminoheptanoate yields
4,"SEQ ID NO: 180: Ramlibacter tataouinensis aminotransferase (protein, listed as Ramlibacter tataouinensis, Ramlibacter tataouinensis (strain ATCC BAA-407 / DSM 14655 / LMG 21543 / TTB310), Ramlibacter tataouinensis aminotransferase) MAYNDFDTGNHWLPFTPNRHFKKEPRVFVAADGMHFTTHDGRQVVDGISSLWCVGAGHNRKPINEAIKKQLDTLDYATAFNAANDQAFLAAQKIAAMAPGDLNKVLFCNSGSEAADTSMKVALAYHRARGEGHRNIFIGRERGYHGVGFGGMSVGGIPANRKVYGTALLPRVDHMRFIHDPANAYIHNQEPVSQEDYLLELEQRILPLHSPENVAAIIVEPVAGSAGWYLPPKGYLKRLREICDKHGILLIFDEVITGFGRMGTSFGADFYGVVPDMLNFAKCVTNGVIPLGGVICRDKLYDTMMKTDAPEHVIEFFHGYTYSGHPVSCAAAIATLDLYQKEGLFPRAGEMGKVLGDAFHSTFKGLPNVVGIRSLGLAAAVELAPIAGLPGKRAYDIYLDCFRKGALVRPAGDVVVIAPPYVVEKSHIDQLVNTLADSIRQHA",higher 7-aminoheptanoate yields
5,"SEQ ID NO: 181: Bradyrhizobium sp. DOA9 aminotransferase (protein, Bradyrhizobium sp. DOA9, Bradyrhizobium sp; DOA9 aminotransferase) MVAKQLSNSLAHADISATLHPYTNARAHERQGPVIIDRGEGIYVYDDAGKEYIEGLAGLWSVAIGFDEPRIVEVAAAQMAKLPYYHTFSHKSHEPSIRLAEKLVGMTPEPLSRVFFTSSGSEANDTMIKMVWYMNNALGRPKKKKFLARHRAYHGVTVASGSLTGLPNNHKDFDLPVIPVRHLTCPHFYRFAQTEETEAEFSARLVSEAEATILEEGPDTIAAFVGEPLMAAGGVMPPPKGYWQGIEALCRKYDILLVADEVICGLGRLGTRFGCEHYHFTPDIMIVSKQLTSSYMPLAAVIFSETIYNAIADNTAKIGTFGHGFTASGHPVATAVALENLKIIEERDLVGNAARMGRILQARLGELAAHPLVGEVRGVGLIAGIELVSEKHTRRPFASAGEVGAAAFAAAQRHGLIVRAIGDTIALCPPLIINEDQVHELVARLGDALDDTAQWRSAENLN",higher 7-aminoheptanoate yields
6,"SEQ ID NO: 123: Pseudomonas sp. 10-1B aminotransferase (protein, Pseudomonas sp. 10-1B, Pseudomonas sp; 10-1B aminotransferase) MENSMSLNDLQQRDIDNLLHPYTNHHLHQSQGPHVITGGDGIYVTDDQGNRYIEGLAGLFCASLGFSEPRLAQAAFEQLQRMPFYHAFAHKSTQPGIELAERLLAMAPPSMSKVFFANSGSEANDTAVKLIWYYHNAIGQPQKKKIIARQRGYHGVTVASASLTGLPNNHRDFDLPIANILHTDCPHYYRYGLPGESEAAFVDRCVANLEALILHEGADTIAAFFAEPVMVSGGVILPPQGYFAKVQALLRKYDILFVVDEVICGFARTGNMFGWQTYDLQPDMISLAKQLSAAYMPISALLVNDKIDQALKAQSEKIGSFSHGFTYGGHPVAAAVALEAQKIYQERDIVGHVRRVAPRFQAGIRRLGEHPLIGEARGVGLVAGLEFVRNKQTRETFAPEQSAAAYAGRRAQAHGVITRGLGDTLSLCPALIIDEEQIDDLIVRIERALDDTLAWAREQGLVDA",higher 7-aminoheptanoate yields
7,"SEQ ID NO: 117: Thermomicrobium roseum aminotransferase (protein, Thermomicrobium roseum (strain ATCC 27502 / DSM 5159 / P-2), Thermomicrobium roseum aminotransferase) MTEVAAVHPEPRTAPDFEQEALKHVWIHSAEWIRLAEERGFRVFERAYGSTLVDVYGREFIDGLSGLWVVNAGHGRKEIAEAMAEQASKLAYVSSANHTTVPTVRLAHELALRLPGDLNRVFFCSGGSEAVESAIKIAKQVQAMRGFPKRYKIIARRGSYHGMTYGAMSLTQSRNEKFFGPFMYGVYYVPSPNRYRNDFGLEGEEGDLMCANYVEQEILYQDPETVAAVIGEPISTSNGVHVPSPKYWQRLREICDKYGVLLIMDEVINGFGRTGKLFAAEHFGVVPDLMTMAKGITSGYAPMGAVAVRDSVFQIFQEQKEVPLGHLLTFGGHAVAAAAALKNLEIFEREGLVQQSAEKGAYLLERLKELLRHPTVGDVRGLGLMCGIELVKSKATKEKWPRNSAFIKALERRMNEKGLLTRVWEIVHVAPPLVVTYEELDRIVTIIDEALTETENEFASEIAE",higher 7-aminoheptanoate yields
